# Experimental data reported in US20240317859A1 (published 2024).
# Residue numbers refer to the chain shown, from its start.
# T1: FcγRIIB/C (CD32b/c) (FcγRIIB) (R&D Systems) (UniProt P31994 46-217)
# T1 chain: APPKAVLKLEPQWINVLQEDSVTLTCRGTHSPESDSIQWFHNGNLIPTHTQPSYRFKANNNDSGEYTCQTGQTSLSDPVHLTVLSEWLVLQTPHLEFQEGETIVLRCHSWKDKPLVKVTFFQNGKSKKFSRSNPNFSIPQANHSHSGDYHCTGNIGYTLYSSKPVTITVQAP
# B1: X3-KI HM268-K8 (antibody)
# chain 1: QVQLVQSGPEVKKPGASVKVVCKTSGYTFTSYYIQWLKQRPGQGLEWIGWIYFGDASTKYNEKFKGRVTMTADKSTSTAYMELRSLRSDDTAVYYCASYYGSYFDYWGQGTTVTVSSASTKGPSVFPLAPSSKSTSGGTAALGCLVKDYFPEPVTVSWNSGALTSGVHTFPAVLQSSGLYSLSSVVTVPSSSLGTQTYICNVNHKPSNTKVDKKVEPKSCDKTHTCPPCPAPELLGGPDVFLFPPKPKDTLMISRTPEVTCVVVDVSDEDPEVKFNWYVDGVEVHNAKTKPREEQYNSTYRVVSVLTVLHQDWLNGKEYKCAVSNKALPAPEEKTISKAKGQPREPQVYTLPPSRDELTKNQVSLTCLVKGFYPSDIAVEWESNGQPENNYKTTPPVLDSDGSFFLYSKLTVDKSRWQQGNVFSCSVMHEALHNHYTQKSLSLSPGK
# chain 2: DIQMTQSPSSLSASVGDRVTITCRASQDISNYLNWYQQKPDGTVKLLIYSTSRLHSGVPSRFSGSGSGTDYTLTISSLQPEDFATYYCQQGSTLPFTFGQGTKLEIKRTVAAPSVFIFPPSDEQLKSGTASVVCLLNNFYPREAKVQWKVDNALQSGNSQESVTEQDSKDSTYSLSSTLTLSKADYEKHKVYACEVTHQGLSSPVTKSFNRGEC
# B2: X3-KE HM268-K8 (antibody)
# chain 1: B1 chain 1 with E293A, E332I
# chain 2: B1 chain 2
# B3: X3-KSI HM268-K8 (antibody)
# chain 1: B1 chain 1 with S267G
# chain 2: B1 chain 2
# B4: X3-KSL HM268-K8 (antibody)
# chain 1: B1 chain 1 with S267G, L328Y, E332I
# chain 2: B1 chain 2
# B5: X3-K HM268-K8 (antibody)
# chain 1: B1 chain 1 with E332I
# chain 2: B1 chain 2
# Target: T1, FcγRIIB/C (CD32b/c) (FcγRIIB) (R&D …)
# Test: SPR
row,Kd [nM],Binder
1,689,B1
2,1110,B2
3,1640,B3
4,1240,B4
5,1380,B5

# Target: Fc gamma RIIIA/CD16a, CF (FcγRIIIA(V158)) (R&D Systems)
# Test: SPR
# Fc gamma RIIIA/CD16a, CF (FcγRIIIA(V158)) (R&D Systems), sequence (chain, as listed by the source): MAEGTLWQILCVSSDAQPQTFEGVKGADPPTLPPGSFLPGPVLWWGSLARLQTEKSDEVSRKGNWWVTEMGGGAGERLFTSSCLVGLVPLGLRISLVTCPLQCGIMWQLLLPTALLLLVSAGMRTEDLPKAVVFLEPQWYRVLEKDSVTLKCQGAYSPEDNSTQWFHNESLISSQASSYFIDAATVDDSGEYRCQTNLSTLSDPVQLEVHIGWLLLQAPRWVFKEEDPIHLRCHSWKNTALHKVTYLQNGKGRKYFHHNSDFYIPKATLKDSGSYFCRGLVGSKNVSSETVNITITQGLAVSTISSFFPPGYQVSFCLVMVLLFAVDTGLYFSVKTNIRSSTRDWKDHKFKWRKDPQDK
row,Kd [nM],Binder
1,162,B1
2,305,B2
3,265,B3
4,3460,B4
5,370,B5
